A protein production outcome set (Wang et al. 2014)

Assay: label from the status in PepcDB records
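Further: failed if final PepcDB status was selected cloned or expressed and not failed if soluble or beyond.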

Row | Sequence | protein production
1 | GRDLLLAVDVSGSMDYRDMRWQDDEISRLELIKKLFGDFIEDRRGDRVGLILFGSQAYLQAPLTFDRHTVRVWLDEAQIGIAGKNTAIGDAIGLAVKRLRQRPAESRVLVLITDGANTGGQIAPQIAAQLAAEQQVKIYTIGIGADPQQGGVPGLFGFNPGLDLDEPTLRGIAESTGGEYFRARSSAELESISATLDRLEPVA | failed
2 | MWYTVQPGDSLYTISQRFGVTIAQIKSANQLTSDIIYVGQRLYIPIGIQAPVVYTVRPGDTLYLIARRYNTTVDSLMALNNLSSTELRIGQQLTIPLYTEAVVNVGTANIRRGPGTNFGIITRMTNGARLPVIGFSNNWYQVRLYNGREGWISGSIVTRNVYSGRRPITGVLGFYTLEEGPTLPSSFTSFANNTGQLSSTALFMFRISAANPTTIEKFGEFTDQDVRNLVAIAHRNNVKIMPVVHNLLYRPGGTTLAKNVVKTLVSDPRNRNAFALNLVNLIERYGFDGVNIDIEDVFIEDSDNLSLLYTEISEVLRPRGYFFSASVPSRVSDEPFNPFSDPFNYSVIGRAVDEFVVMLYNEFGWPGSPPGPAVTIGWMERVLRYTMSKMPRDKIMAAVSVFGFDFNLTTGRNTYVTYQSAINLARRYNSEIIFNEERQTPMFTYRDAQGNQHEVWFEDARSLRSKIQLAWELGIKGVALWRLGMEDPNIWPMLRNEVVVRKF | failed
3 | DVVVVGSGVAGPIVARDVAKAGFSVLLVDKKPAIGTPKQCAEGINVNVFKEFDIPYDKRFINREIYGARIYSPSGYTAELRYDKVSGVILERKVFDKMLAYYAAKAGADVWARTEVIDLLRKEGKIMGVKAKHEGELVEIEAKIIVAADGVESTVARLAGINTYAPPHEFDSAYEYEMIIEGYDPDLIHLWFGNEIAPRGYVWVFPKDEDRANVGIGINSDNEKTAKYYLDKWLKENNIPTKKILEINVGLVPVGGFVRELVKENVAVVGDAARQVNPVHGGGMYEAMKAANILAKWIVKALEEENLELLKNYTKEWWEVEGPKMERLLKLRRAMEKLTDEDIDVFVQLLGGTDLEKLAGGNYFEVVKALMKHPKVLMSKRRLEILKALL | failed
4 | MENGEAKQSVPLLTPYKMGRFNLSHRVVLAPLTRQRSYGNVPQPHAAIYYSQRTTPGGFLITEATGVSDTAQGYQDTPGIWTKEHVEAWKPIVDAVHAKGGIFFCQIWHVGRVSNSGFQPNGKAPISCSDKPLMPQIRSNGIDEALFTPPRRLGIEEIPGIVNDFRLAARNAMEAGFDGVEIHGANGYLIDQFMKDTVNDRTDEYGGSLQNRCKFPLEIVDAVAKEIGPDRVGIRLSPFADYMESGDTNPGALGLYMAESLNKYGILYCHVIEARMKTMGEVHACPHTLMPMRKAFKGTFISAGGFTREDGNEAVSKGRTDLVAYGRWFLANPDLPKRFQVDAPLNKYDRPTFYTSDPVVGYTDYPFLESTA | not failed
5 | MSPTVLPATQADFPKIVDVLVEAFANDPTFLRWIPQPDPGSAKLRALFELQIEKQYAVAGNIDVARDSEGEIVGVALWDRPDGNHSAKDQAAMLPRLVSIFGIKAAQVAWTDLSSARFHPKFPHWYLYTVATSSSARGTGVGSALLNHGIARAGDEAIYLEATSTRAAQLYNRLGFVPLGYIPSDDDGTPELAMWKPPAMPTV | not failed
6 | MNLLNLFTYVIPIAICIILPIFIIVTHFQIKSLNKAVTSFNKGDRSNALEILSKLVKSPIKNVKANAYITRERIYFYSRDFELSLRDLLQAIKLRPKTINDVYSFALSYHILGEPERALKYFLRAVELQPNVGISYENLAWFYYLTGKYDKAIENFEKAISMGSTNSVYRSLGITYAKIGDYKKSEEYLKKALDAEPEKPSTHIYFSYLKRKTNDIKLAKEYALKAIELNKNNFDGYKNLAEVNLAEDDYDGFYKNLEIFLEKINFVTNGEDFNDEVYDKVKDNEKFKELIAKTKVIKFKDLGIEIDDKKILNGKFLV | failed
7 | MGEVFAGRYELVDPIGRGGVGAVWRAWDHRRRRYVAAKVLQQRDAHSLLRFVREQALRIDHPHVLAPASWAADDDQVLFTMDLVTGGSLVHLVGDYGPLPPEFVCTLLDQLLSGLAAVHGEGVVHRDIKPANLLLEATGTGRPRLRLSDFGIAMRLGEPRLTETNLVVGTPGYLAPEQMMGAEPDFPSDLFAVGLVALYLLEGAKPDAKVLVQHFAEHGTPPAPRGIPEPLWQVVATLLQPDPSARFRTATGARKALAAAVELLPEPGPDDELIEIFDQVGPLPTGFGPEGPFKRASGVDDVPTDPRRPAGTPPGVDPSPPATPPTPPPAPPWQGTPPAGPSSGLDRPSPGSPGPPPTGPDSTPASPPPGTPVTATGTPSAPGLPPASDQGWTPSTPSGPTAPPSAPSAPSAPSAPGPTRPAPHGTHSEEVPLAERPGAMSETGSFHLPPPQPTVTPTSDAAASDAAAEAAQPPAPHPAFTGGPRGLPPDRAPGRSQHPAPHGPPLTARSLAPSPARRADVPTAAYTARNPRSAPPAQHRGARRRRRPGPPARVALPVLLLALACYAVGFWALTRI | failed
8 | MSCYSDSITPDSFSGIVFALEGVSRSIVLINGPSGCKYYHSAVSDNQTLRQYEFDPFNYSEKWYFGQPRVPCTYLDSDDYIYGSTDKLTEALEFLRDNAPFDLLCIVNSPGAALIGDDLRGIAGRIIKEKSVVIIETPDFSRDICTGYETAAAALLDSLPLNSAARSQPNTVNILGLSIFHKYFAGDILELRRLLELCGVTVNCFLCADCDIDTIRRIPEAALNIVIHPEYGMKTARCLKERYGTPFYLCDGPPIGFSATEKFIGGICTALGCDSSLFRRESERARARAYAYISQVNSLTGLPKGVHFAVEGTYSELYAYTSFLVRYFGMIPEALSVLNEGSDCCKERLQALLNGLALPQALDRDLTETDSELVFASGNTIAKLKLRRHMFSGIEISLPSLGYIDVIPKTHIGLQGALMLTEQVLNGLAF | failed
9 | MEQMKITNLTGEQISFQLILHSGNARSCIIQSLRAYKEGKKDEADALIAKAEQDLSAAHDIHFQMIQKESGGEATAFSLLLMHAEDHLMSTLSMKELVKEMLDLFKTKNI | failed
10 | MFERLPVPLSRHERAGPPMPEIGPYTLHTVDTGRFGLDGGAMFGIVPKPLWSQRIEPDEQNRIPLSMRCLLLIGDGRVVLIDTGIGDTFEDTKFQDIFAVDHSGATLEGSLAAHGVAPVDVTDVVLTHLHFDHAGGSTRRIDGEPAVAFPNATYHVQRRHWNWAADPNPKEEQSFRSDTFAPIEEAGQLNLVEGETTLLPHVDVSLVHGHTEAQQTVTVRDDETTLVYVADLLPTTHHLSPAWTMAYDVRPLRTIEEKGEFLEQAADSEWKLFFEHDPEVAVADVERTDRGVQVVNERSLDAL | failed
11 | EKAVLIGEKEADITFVTWGSQKGPILDVIEDLKEEGISANLLYLKMFSPFPTEFVKNVLSSANLVIDVESNYTAQAAQMIKLYTGIDIKNKILKYNGRHMTEDEILKSAKEILNKESLMVVLEDGS | failed
12 | PGVELRTAADFADDPRPLFELDAETSGDEPGDVDHEFTDYEAWLEETWRHPLLSHELTSVALVDGRPAAFSAARTDGATRYHTGMTGTARAFRGRGLAKLAKNDSLHRARAAGFTEAFTGNDAGNEPMLAINKWFGYEICATEVRYVRELG | failed
13 | MSNCWKNVLVKPACTLLDALEIINDEALRVVLVVDESDSLLGVVTDGDIRRGLLRNLPLTADIAQVMNTTPYTAAIDTPRDELIAIMESNDILSIPLLDNGKVVGLETLHHALSTPVYENPVFIMAGGFGTRLRPLTDHCPKPMLKIGDKPILETVIRNFIKAGFINFYISTHYMPELIHQHFGDGSTLGVKITYVHEQSPLGTGGALGLLPKELPKDLPLIMMNGDVLTKVDFQRLLEFHTEHDADATMCVREYDYQIPYGVIKGEGNRITSMVEKPIQRFFVNAGIYVVSPVVIQSVPENHHIDMPTLLEQHMNKRNNVLMFPIHEYWLDIGRMDDFNRAQTDIYTLGL | failed
14 | MTIRISGKSISIGEALRSRVSERTEEVLRKYFDGNYSGHFTLSKDGFGFRTDCALHLDSGITLEAESNAADAYVSADQALVQIEKRLRRYKSRLKDRSSRKAHAEANALAELSTPVDAASYVIEAPGDEEHHEDAYNPVIIAEATTAMKRLSVSEAVVELDLTGAPVVVFLHGSSGRVNIIYRRADGNIGWIDPPVLNGAN | failed
15 | MTPTQNVPEDRIQIGQLRSAYGLNGWLWVYSNTEPMSNMFDYLPWFIETKAGWQTVDVKRWKPHGKGLVVSLKNVSDRNAAESLIGSTIWVAKSQLPKTDVDEYYWSDLKGLTVLGLDEEEQEVNLGQIHELFETGANDVMVVRATADSVDAEERMIPWHKDVVQRVDLEAGRIYVNWGVDYLEHHHHHH | not failed
16 | MTQQTDLQSKTNIDPLAMNDSFLAAADALAVDPMFGIPANVREVIARRGNATRLVILGTKGFGAHLMNVRHERPCEVIAAVDDFRYHSGELYYGLPIISTDRFTELATHDRDLVALNTCRYDGPKRFFDQICRTHGIPHLNFEQAVRAFGLQGNVDYRVDDWGADIVRNIPAFQTLAQRLADDYSVQTLYAVLNFHLTCEPEYYHEVERPYSTLYFRSGLLRFSDSEKMVDCGASIGESLAGLIGVTKGKFERVWMIEPDRINLQTLQNVLRRYTDTNFASRITVHGCGAGENTIRVPFNHEGGHGGFVKPADADHEPADLIDVRPIDDIIDDAPTFIKMDIEGSELSALKGARRAISEHKPKLAISAYHRSTDLLDLTNYILSIRPDYQIGLRHHTPDRWDTCLYFY | not failed
17 | MTVRSRFFTEAEGKAVGVENAAAKGDVLLVCEHASATIPQKYGTLGLSADVLSSHAAWDPGALAVARLLSEKFHATLVYQRFSRLVYDCNRPPESPSAMPVKSEIYDIPGNFDLDEAERFARTSALYVPFHDRVSEIIAERQAAGRKVVVVTIHSFTPVYHGRFREVEIGILHDNDSRLADAMLAGAEGASLTVRRNDPYGPEDGVTHTLRLHALPDGLLNVMIEIRNDLIANEGEQAAIAGFLHELMGKALSSIEE | not failed
18 | AEIDTSSIVEMVQGAEDAPVEVIEYASYTCPHCAAFHEGPYKKLKADFIDTGKVRFIYREVYFDRYGLWASMVARCAGPEKFFGISDLIYKGQAEWSRAGGPAEIAEELRKIGRLAGIENDKLEACLGDATKAQTLVAWYQEHATRDDINSTPSFMINGKKVENQAYDGFKALIEAELGN | not failed
19 | MSSSEIQTKNSEVQVKEMVAHKWDLASETFDTHAGHGIQTQKERDAWKRAFLKVFPGKSLKILDVGCGTGELSLLFAEMGHEVAGIDISGQMLKIAKAKAEALGADITFREGDAENPPFDTSSYDIVFSRHLLWTLPNPKVAVENWNRILRKNGKVVIVDGVWDSGTLGSRARKNAGALLTLLLERKDPRKGHSDYSDELKAQLPHFGGAPLEKVNEYLSNSGFGNIQIFDLKEVRDAQKEKMPLGERVVRSYQYYLICGRK | failed
20 | MEAEVWEAEGYNLVLDSDLYDADGYDVPDPGLLTEKNELTFTEPSQVLPFLTSSQQWQSLTPRARARRLWLLLRTSLHEVVEKEKRAELRAARLTHGLEPLRRLEVAAGLRSVAQDPVGGRFVVLDGAGRLHLHKEDGWAQETLLAPVRLTGLVTVLGPLGAVGRFVGWGPAGLAILRPNLSLLWLSEQGVGRAPGWAPTCCLPVPDLRLLLVAEMNSSLALWQFRSGGRRLVLRGSALHPPPSPTGRLMRLAVAPVPPHHVLRCFAAYGSAVLTFDLHAWTLVDVRRDLHKTTISDLAYCEEVEAMVTASRDSTVKVWEADWQIRMVFVGHTGPVTAMTVLPNTTLVLSASQDGTLRTWDLQAAAQVGEVALGFWGQDKLSRRVGRLLAPVRPGWPVLSLCASSMQLWRVRELYSPLAQLPAKVLHVQVAPALPAPAHQSLPTRLVCACADGSVYLLSAATGRIVSSLLLEPEDCAAAVAYCLPREALWLLTRAGHLVRANAARCPMSVLHRVCPPPPPAPQPCCLHLYSHLTDLGGAFSSWEIVRQHWGELRCSSVACAWKNKNRYLPVVGHTDGTLSVLEWLSSKTVFQTEAHSPGPVVAIASTWNSIVSSGGDLTVKMWRVFPYAEESLSLLRTFSCCYPAVALCALGRRVTAGFEDPDSATYGLVQFGLGDSPRLDHRPQDDPTDHITGLCCCPTLKLYACSSLDCTVRIWTAENRLLRLLQLNGAPQALAFCSNSGDLVLALGSRLCLVSHRLYLPTSYLVKKMCRKAPDVVDDPPLPLMSQESLTSAQLQRLTNLHGAASLRSHAGLLSPPGGPPFPLWVGAWRCGALWS | failed
